Biological target: T1, recombinant Fc fusion protein composed of the Sushi domain 1 and 2 of human CD46 (human, UniProt P15529 35-159)
T1 construct: domain: Sushi domain 1 and 2; Produced in HEK293 cells, purified by protein A; also called CD46-Fc fusion; recombinant CD46-Fc fusion protein; not shown: Fc part
T1 sequence (looked up): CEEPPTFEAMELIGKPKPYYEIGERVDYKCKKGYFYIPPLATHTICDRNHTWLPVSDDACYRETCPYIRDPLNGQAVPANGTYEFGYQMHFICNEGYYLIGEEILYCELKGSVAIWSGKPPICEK
Assay: phage and yeast display selection and FACS screening with recombinant CD46-Fc fusion
Description: To identify novel anti-human CD46 antibodies, a recombinant Fc fusion protein composed of the Sushi domain 1 and 2 of human CD46 was created. As complement elements bind predominantly to domain 3 and 4, the choice of domain 1 and 2 minimize selection of antibodies that could potently interfere with normal complement function. This CD46-Fc fusion was produced and purified from transfected HEK293 cells by protein A affinity chromatography. For human antibody selection, a 5×10⁹ member phagemid display library was created using cDNAs pooled from peripheral blood mononuclear cells of 426 healthy human donors, and the library was selected the recombinant CD46-Fc fusion protein. Following three rounds of selection, binding phagemid were screened by FACS and sequenced. In parallel, an alternatively strategy was employed that involve first selecting the library on live tumor cells followed by transferring the output from round 1 phagemid selection into a yeast surface display vector, and then FACS-based selection using low concentration ligands to enrich high affinity binders to the recombinant CD46-Fc fusion protein. The resulting antibodies bind with high affinity to both live tumor cells and the recombinant human CD46 protein.

| Binder | binding result |
| --- | --- |
| YS4 (antibody, V domains shown, Human scFv from phage/yeast display, converted into full human IgG1) VH: QVQLQESGGGLVQPGGSLRLSCAASGFTFSNYAMSWVRQAPGKGLEWVSTISGSGSSTFYVDSVKGRFTISRDNSKNTLYLQMNSLRAEDTAVYYCAQGLYSSGWANWFDPRGQGTLVTVSS VL: KIVLTQSPSSLSASVGDTVTIACRASRDIRNDLAWYQQKPGKAPKLLIYGASSLQSGVPSRFSGSGSGTEFILTISSLQPEDFATYYCHRLNSYPLTFGGGTKVDIK | binds |
| 3G7RY (aka 3G8) (antibody, V domains shown, Human scFv from phage/yeast display, converted into full human IgG1; elsewhere 3G8 is 3G7RY) VH: EVQLVESGGGLVQPGGSLRLSCAASGFTFSDYYMSWIRQAPGKGLEWVSYISSSGSTIYYADSVKGRFTISRDNSKNTLYLQMNSLRAEDTAVYYCARDYGRIAAAGRRYWGQGTLVTVSS VL: QSALTQPPSASATPGQRVTISCSGRTSNIGSNHVYWYQQLPGTAPKLLIYRNNQRPSGVPDRFSGSKSGTSASLAISGLRSEDEADYYCATWDDSLSGEVFGGGTKLTVL | binds |
| YS1 (antibody, V domains shown, Human scFv from phage/yeast display, converted into full human IgG1) VH: EVQLVESGGGLVQPGGSLRLSCAASGFTFSDYYMSWIRQAPGKGLEWVSYISSSGSTIYYADSVKGRFTISRDNSKNTLYLQMNSLRAEDTAVYYCARDYGRIAAAGRHYWGQGTLVTVSS VL: SSELTQDPAVSVALGQTVRITCQGDTLSTYYANWYQQKPGQAPVLVIYGKNNRPSGIPDRFSGSSSGNTASLTITGAQAEDEADYYCHSRDISGNYLFASGTKLTVL | binds |
| 3G7HY (antibody, V domains shown, Human scFv from phage/yeast display, converted into full human IgG1) VH: EVQLVESGGGLVQPGGSLRLSCAASGFTFSDYYMSWIRQAPGKGLEWVSYISSSGSTIYYADSVKGRFTISRDNSKNTLYLQMNSLRAEDTAVYYCARDYGRIAAAGRHYWGQGTLVTVSS VL: not shown | binds |
| YS6 (antibody, V domains shown, Human scFv from phage/yeast display, converted into full human IgG1) VH: QVQLQESGGGVVRPGGSLRLSCAASGFTFSDYYMSWIRQAPGKGLEWVSYISSSGSTIYYADSVKGRFTISRDNSKNTLYLQMNSLRAEDTAVYYCARDYGRIAAAGRHYWGQGTLVTVSS VL: SSELTQDPAVSVALGQTVRITCQGDSLRSYYASWYQQKPGQAPVLVIYGKNNRPSGIPDRFSGSSSGNTASLTITGAQAEDEADYYCNSRDSSGTHLEVFGGGTKVTVL | binds |
| 3G7NY (antibody, V domains shown, Human scFv from phage/yeast display, converted into full human IgG1) VH: EVQLVESGGGLVQPGGSLRLSCAASGFTFSDYYMSWIRQAPGKGLEWVSYISSSGSTIYYADSVKGRFTISRDNSKNTLYLQMNSLRAEDTAVYYCARDYGRIAAAGRNYWGQGTLVTVSS VL: DIVMTQSPLSLPVTPGEPASISCRSSQSLLHSNGYDYLDWYLQKPGQSPQLLIYLGSNRASGVPDRFSGSGSGTDFTLKISRVETEDVGIYYCMQGLQTPSFGQGTKLEIK | binds |
| 3G7 (antibody, V domains shown, Human scFv from phage/yeast display, converted into full human IgG1) VH: QVQLQESGGGVVRPGGSLRLSCAASGFTFSDYYMSWIRQAPGKGLEWVSYISSSGSTIYYADSVKGRFTISRDNSKNTLYLQMNSLRAEDTAVYYCARDYGRIAAAGRHYWGQGTLVTVSS VL: SSELTQDPAVSVALGQTVRITCQGDSLRSYYASWYQQKPGQAPVPVIYGKNNRPSGIPDRFSGSSSGNTASLTITGAQAEDEADYYCNSRDSSSTHRGVFGGGTKLTVL | binds |
| YS3 (antibody, V domains shown, Human scFv from phage/yeast display, converted into full human IgG1) VH: QVQLQESGGGLVQPGGSLRLSCAASGFTFSSYWMSWVRQAPGKGLEWVADIKQDGSEKYYVDSVKGRFTISGDNAKNSLYLQMNSLRAEDTAVYYCAKDVGSTAINYVRAYTWFDPWGQGTLVTVSS VL: not shown | binds |
| YS5F (antibody, V domains shown, Human scFv from phage/yeast display, converted into full human IgG1) VH: QVQLVQSGGGVVQPGRSLRLACAASGFTVNNYAMHWVRQAPGKGLEWVAVISYDGNNKYYADSVKGRFTISRDNSKNTLYLQMNSLRAEDTAVYYCAKGGGYFDLWGRGTLVTVSS VL: QSVLTQPPSVSGAPGQRVTISCTGSSSNIGAGYDVHWYQQLPGTAPKLLIYGNNNRPSGVPDRFSGSKSGTSASLAITGLQAEDEADYYCSSYTSGTWLFGGGTKLTVL | binds |
| YS9 (antibody, V domains shown, Human scFv from phage/yeast display, converted into full human IgG1) VH: QVQLVESGGGLIQPGGSLRLSCAASGFTVSSNYMSWVRQAPGKGLEWVSVIYTDGSTYYADSVKGRFTISRDNSKNTLYLQMNSLRAEDTAIYYCARDRGTSGYDWAWFDLWGQGTLVTVSS VL: SSELTQDPAVSVALGQTVRITCQGDSLRTYYASWYQQRPGQAPILVLYGKNNRPSGIPDRFSGSSSGNTASLTITGAQAEDEADYYCNSRDSSGNHVVFGGGTKLTVL | binds |
| SB2 (antibody, V domains shown, Human scFv from phage/yeast display, converted into full human IgG1) VH: EVQLVESGGGLVKPGGSLRLSCAASGFTFSDYYMSWIRQAPGKGLEWVSYISSSGSSIYYADSVKGRFTISRDNAKNSLYLQMNSLKAEDTAVYYCARDITDVVGVSFDYWGQGTLVTVSS VL: DIQLTQSPSSLSASVGDRVTITCRASRSISTYLSWYQQKPGKAPKLLIYDASRLQNGVPSRFSGSGSDTDFTLTISSLQPEDFATYFCQQSYNPPWTFGQGTKLEIK | binds |
| YS12 (antibody, V domains shown, Human scFv from phage/yeast display, converted into full human IgG1; also called YS12 IgG1) VH: QVQLVESGGGVVQPGRSLRLSCAASGFTFSTYGMHWVRQAPGKGLEWLSFISYDGDEKYYADSVKGRFTISRDNSKNTLYLQMNSLRAEDTAVYWCAKASGYGMGILDYWGQGTLVTVSS VL: SSELTQDPAVSVALGQTVRITCQGDSLRSYYVSWFQQKPGQAPVFVMYGQNNRPSGISERFSGSSSGNTASLIITGAQAEDEADYYCHSRDSSGTHLRVFGGGTKLTVL | binds |
| SB1HGNY (antibody, V domains shown, Human scFv from phage/yeast display, converted into full human IgG1) VH: QVQLQQSGGGVVQPGRSLRLSCAASGFTFSSYAMHWVRQAPGKGLEWVAFIRSDGSKKYYADSVKGRFTISRDNSKNTLYLQMNSLRAEDTAVYYCARHGNYFDSWGQGTLVTVSS VL: DIQMTQSPSFLSASVGDRVTITCRASQGISSYLAWYQQKPGKAPKLLIYAASTLQSGVPSSFSGSGSGTEFTLTISSLQPEDFATYYCQQLASYPLTFGGGTKVDIK | binds |
| YS11 (antibody, V domains shown, Human scFv from phage/yeast display, converted into full human IgG1) VH: QVQLVESGGGLVQPGGSLGLSCAASGFTFSNYWMSWVRQAPGKGLEWVANVRQDGGQKYYVDSVKGRFTISRDNAKNSLYLQMNSLRTEDTAVYFCVSQRNSGEHDYWGQGTLVTVSS VL: SELTQDPAVSVALGQTVRITCQGDSLRSYYASWYQQKPGQAPVLVIYGENSRPSGIPDRFSGSSSGNTASLTITGAQAEDEADYYCNSWDSSGNHVVFGGGTKLTVL | binds |
| YS10 (antibody, V domains shown, Human scFv from phage/yeast display, converted into full human IgG1) VH: QVQLQESGGGLVQPGGSLRLSCAASGFTFSSYAMSWVRQAPGKGLEWVSAISGSGGSTYYADSVKGRFTISRDNSKNTLYMQMNSLRAEDTAVYYCAKDRYYYGSGKDAFDIWGRGTMVTVSS VL: QSVLTQPASVSGSPGQSITISCTGTGSDVGSYNYVSWYQQNPGKAPKLMIYEVSNRPSGVSNRFSGSKSGNTASLTISGLQAEDEADYYCSSYTTSSTLVFGGGTKVTVL | binds |
| UA8kappa (antibody, V domains shown, Human scFv from phage/yeast display, converted into full human IgG1; also called UASkappa) VH: EVQLVESGGGVVQPGRSLRLSCAASGFTFSSFGMHWVRRAPGKGLEWVAVISYDGSNQYYADSVKGRFTISRDNSKNTLYLQMNSLRAEDTAVYYCGSRPGGGYASGSTVAYWGQGTLVTVSS VL: NIQMTQSPSSLSASVGDRVTITCRAGQPISTYVNWYQHKPGKAPKLLIYGASNLQSGVPSRFSGGGSATDFTLTISSLQPEDFATYYCQQSYSSLLTFGDGTKVEIK | binds |
| YS7 (antibody, V domains shown, Human scFv from phage/yeast display, converted into full human IgG1) VH: QVQLVQSGGGVVQPGRSLRLSCAASGFTFSSYAMHWVRQAPGKGLEWVAVISYDGSNKYYADSVKGRFTISRDTSTNTLYLQMNSLRADDTAVYYCGRESSGSPGVWGQGTTVTVSS VL: SYVLTQDPAVSVALGQTVRITCQGDSLRSYYASWYQQKPGQAPVLVIYGKNNRPSGIPDRFSGSSSGNTASLTITGAQAEDEADYYCNSRDSSGNQFGGGTKLTVL | binds |
| YS8 (antibody, V domains shown, Human scFv from phage/yeast display, converted into full human IgG1) VH: QVQLQESGGGVVQPGRSLRLSCAASGFTFSSYGMHWVRQAPGKGLEWVAVISYDGSNKYYADSVKGRFTISRDNSKNTLYLQMNSLRAEDTAVYYCAKVMGLAAAGLDAFDIWGQGTTVTVSS VL: NFMLTQPASLSGSPGQSITISCTGTSSDVGGYNYVSWYQQHPGYAPKLMIYDVSNRPSGVSNRFSGSKSGNTASLTISGLQAEDEADYYCSSYTSSSTPWVFGGGTKLTVL | binds |
| 2C8 (antibody, V domains shown, Human scFv from phage/yeast display, converted into full human IgG1) VH: EVQLVESGGGVVQPGRSLRLSCAASGFTFSSYGMHWVRQAPGKGLEWVAVISYDGSNKYYADSVKGRFTISRDNSKNTLYLQMNSLRAEDTAEYYCAKVMGLAAAGLDAFDIWGQGTLVTVSS VL: QSALTQPASVSGSPGQSITISCTGTSSDVGGYNYVSWYQQHPGKAPKLMIYDVSNRPSGVSNRFSGSKSGNTASLTISGLQAEDEAYYYCSSYTSSSDPWVFGGGTQLTVL | binds |

Reference: patent publication US20170362330A1 (University of California, published 2017)
